Measurements published in patent US11319601B2, “Cell based assay” (Medical Diagnostic Laboratories, L.L.C., priority 2017, dated 2022).
“Also recorded” adds a separate entry of the source.

Columns and labels:
Format in all cases: cell-based
P780ins HER2 receptor = biological target: T1, P780ins HER2 receptor (Homo sapiens, UniProt P04626, INS780GSP); test: HER2 reporter cells transfected with linear expression cassette of P780ins HER2, all-in-one method; conditions: all-in-one method
T1 construct: expressed in transfected cells; host or cells: HER2 reporter cells (clone #1)
Excerpt: P780ins corresponds to an insertion mutation of HER2, which adds 3 amino acids (GSP) after the amino acid position of […] (Proline—P). In order to functionally characterize this mutation, PCR-mediated overlapping extension was employed to construct linear expression cassette of HER2 carrying this insertion. The linear expression cassette of mutant HER2 DNA was first transfected into the reporter cells followed by treatment with NRG1 and its inhibitors using the “all-in-one” method. The luciferase reporter activity was measured 24 hours post-transfection.

wild-type HER2 receptor [1] = biological target: T2, wild-type HER2 receptor (Homo sapiens, UniProt P04626); test: 6×JNK-Luc reporter in HEK293 DKO #27 cells transfected with HER2 and HER3 expression plasmids; conditions: 6 hours
T2 construct: expressed in transfected cells
Description: In example 4, the generation double knockout cells (HEK293 DKO #27) of HER1 and HER2 receptors was described. No protein expression of HER1 and HER2 receptors was detected by immunoblot assays. In order to characterize whether these cells are desirable for use in the assay of the invention, 6×JNK-Luc was co-transfected with expression plasmids of HER3 and wild-type HER2 receptors. After 24 hours, the transfected cells were treated with a serial dilution of NRG1 (HER3 receptor ligand) for 6 hours. The luciferase reporter activity of the transfected cells was measured by Nano-Glo® Luciferase Assay (Promega).
In order to validate the requirement of HER2 receptor in the activation of 6×JNK-Luc reporter in response to NRG1 treatment, the DKO #27 cells were transfected with the wild-type HER2 and HER3 expression plasmids followed by treatment of HER2 inhibitors for 6 hours. The luciferase reporter activity of the treated cells was measured by Nano-Glo® Luciferase Assay (Promega). […]
In order to validate that this 6×JNK-Luc reporters has the capacity of measuring HER2 receptor activity, the reporters were co-transfected with expression plasmids of HER3 and wild-type, constitutively active or kinase-dead HER2 receptors into the DKO #27 cells. […] The luciferase reporter activity of the transfected cells was measured by Nano-Glo® Luciferase Assay (Promega). […]

L755S HER2 receptor = biological target: T3, L755S HER2 receptor (Homo sapiens, UniProt P04626, L755S); test: HER2 reporter cells transfected with linear expression cassette of L755S HER2, all-in-one method
T3 construct: expressed in transfected cells; host or cells: HER2 reporter cells (clone #1)
Excerpt: L755S corresponds to a missense mutation of HER2, which changes leucine (L) into serine (S) at amino acid position of 755. In order to functionally characterize this mutation, PCR-mediated overlapping extension was employed to construct linear expression cassette of HER2 carrying this mutation. The linear expression cassette of mutant HER2 DNA was first transfected into the reporter cells followed by treatment with NRG1 and its inhibitors using the “all-in-one” method. The luciferase reporter activity was measured 24 hours post-transfection.

wild-type HER2 receptor [2] = biological target: T2, wild-type HER2 receptor; test: Clone #28 stable 6×JNK-Luc reporter cells with HER3 plasmid and HER2 linear expression cassette; conditions: HER3 plasmid and HER2 linear expression DNA, 6 hours
Description: In the assay of the invention, expression of patient HER2 receptor is in the linear expression cassette format instead of plasmid DNA. Therefore, the clone #28 cells were transfected with HER3 expression plasmid and HER2 linear expression DNA. After 24 hours, the transfected cells were stimulated with a serial dilution of NRG1 for 6 hours. The luciferase reporter activity was measured. […] Therefore, this clone can be used to measure HER2 receptor activity by transfecting linear expression DNA of HER2.
In order to validate that the clone #28 cells was capable to measure the HER2 receptor activity, expression plasmids of HER3 were co-transfected with wild-type, constitutively active or kinase-dead HER2 receptors. […] The luciferase reporter activity of the transfected cells was measured by Nano-Glo® Luciferase Assay (Promega). […] However, no activation of reporter was detected when the cells were transfected with kinase-dead form of HER2 receptor.
In order to validate that the clone #28 reporter cells were capable of measuring the response of HER2 receptor to its inhibitors, these cells were first transfected with the HER2 linear expression DNA and HER3 expression plasmids followed by treatment of HER2 inhibitors for 6 hours in the presence of NRG1. The luciferase reporter activity of the treated cells was measured by Nano-Glo® Luciferase Assay (Promega). […]

response of mutant HER2 reporter activity to ligand (P780ins HER2 receptor): independent | response of mutant HER2 reporter activity to ligand (L755S HER2 receptor): responds to treatment
Substance: NRG1: neuregulin-1, HER3 receptor ligand
6×JNK-Luc reporter activation by ligand (wild-type HER2 receptor [1]): dose dependent activation; also recorded: activated | reporter activation by ligand (wild-type HER2 receptor [2]): dose dependent manner; also recorded: activated
